From US20110245153A1

Molecular target: Staphylococcal enterotoxin B (Staphylococcus aureus) (UniProt P01552)
Sequence of UniProt P01552 (P01552 28-266 limits assumed): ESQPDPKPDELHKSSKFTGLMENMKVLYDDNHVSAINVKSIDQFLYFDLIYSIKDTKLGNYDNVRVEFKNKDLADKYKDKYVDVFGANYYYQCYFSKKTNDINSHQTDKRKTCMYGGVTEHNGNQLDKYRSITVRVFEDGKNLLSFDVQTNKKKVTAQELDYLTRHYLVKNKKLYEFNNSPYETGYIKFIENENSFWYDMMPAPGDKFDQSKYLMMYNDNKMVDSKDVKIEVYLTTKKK

Substance: Vβ8 CDR2 mutant EGIGYITK (TCR)
- Kd: 5 nM
